Common to all, as to test: flow cytometry on cells
(In general: A flow cytometer gives signals particle by particle.)

Experiment [1] concerns the target soluble HCMV glycoprotein trimer gH/gL/gO-sfGFP, strain TB40/E. The note with it: 1/3 dilution of medium containing gH/gL/gO-sfGFP, read off a plot.
Experiment [2] has as its target membrane-anchored HCMV trimer (full-length gH, gL-FLAG, gO-8his), strain TB40/E, on Expi293F cells. The note with it: fitted curve read at 100 nM soluble PDGFR-Fc (right end of the x axis); parent: est. 1.2; read off a plot.
For experiment [3], the target named is membrane-anchored HCMV trimer (full-length gH, gL-FLAG, gO-8his), strain Merlin, on Expi293F cells, Q6SW67;F5HCH8. The note with it: read at 100 nM soluble PDGFR-Fc (highest concentration); parent: est. 0.98; read off a plot.
Setting [4] is: + 100 nM PDGF competitor, parent: est. 0.33.
Where [5] appears, read: w/o competitor, parent: est. 1.0.

In the case of “myc-tagged human PDGFRα (wild type) on Expi293F cells (from UniProt P16234-1) L137K”, the ratio to parent in experiment [1] (setting [4]) came to 0.85; in experiment [1] (setting [5]), 0.82.

As for “myc-tagged human PDGFRα (wild type) on Expi293F cells (from UniProt P16234-1) L137Q”, the ratio to parent in experiment [1] (setting [4]) was 0.71; in experiment [1] (setting [5]), 0.9.

For “myc-tagged human PDGFRα (wild type) on Expi293F cells (from UniProt P16234-1) V242K”, the ratio to parent in experiment [1] (setting [4]) was 0.94; in experiment [1] (setting [5]) it was 0.9.

In the case of “myc-tagged human PDGFRα (wild type) on Expi293F cells (from UniProt P16234-1) V242T”, the ratio to parent in experiment [1] (setting [4]) was found to be 0.84; in experiment [1] (setting [5]), 0.83.

As for “myc-tagged human PDGFRα (wild type) on Expi293F cells (from UniProt P16234-1) Y206S”, the ratio to parent in experiment [1] (setting [4]) was 0.82; in experiment [1] (setting [5]) it was 0.85.

Take “soluble PDGFRα-Fc (wild type, redesigned fusion to human IgG1 Fc) (from UniProt P16234-1) V242K”: the values for the ratio to parent in experiment [2] and in experiment [3] were 1.1 and 1, respectively.

Consider “soluble PDGFRα-Fc (wild type, redesigned fusion to human IgG1 Fc) (from UniProt P16234-1) Y206S”, for which the ratio to parent worked out at 0.76 in experiment [2] and 0.45 in experiment [3].

(Values after PMC7329128.)
